{"source": "paper PMC8423587", "about": "(Nature chemical biology, 2019)", "binders": {"B1": {"name": "nanobody 72 (VHH)", "VHH": "QVQLQESGGGLVQAGGSLRLSCAASGRIFSTNVMGWFRQAPGKEREFVATVGRIGGSTVYADFVKGRFTLSRDNAKNMVYLQMNSLKPEDTAVYYCGARIGGSDRLAPENYGYWGQGTQVTVSS"}}, "molecular_target": "T1, ELIC 7′C pore mutant (L238C in the cysteine-free background C300S/C313S) (Erwinia (as in the name Erwinia …))", "T1 chain": "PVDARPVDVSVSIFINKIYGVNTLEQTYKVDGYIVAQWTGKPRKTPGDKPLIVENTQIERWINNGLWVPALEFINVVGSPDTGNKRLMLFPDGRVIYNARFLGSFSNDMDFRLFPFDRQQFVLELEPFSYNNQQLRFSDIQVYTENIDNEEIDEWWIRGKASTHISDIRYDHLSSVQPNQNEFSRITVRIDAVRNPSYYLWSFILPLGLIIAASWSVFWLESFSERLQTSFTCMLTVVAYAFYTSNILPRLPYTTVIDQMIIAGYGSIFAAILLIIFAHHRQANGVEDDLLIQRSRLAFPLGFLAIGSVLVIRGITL", "assay": "crystal structure"}
{"binder": "B1", "values": [{"measurement": "stoichiometry N", "result": 5, "unit": "Nb72 per ELIC pentamer"}]}
